Values belong to the binder of their own block, whether it stands above or below them.
Experiments:
[1] = target: phage-displayed hFn14 mutant T33N (human, UniProt Q9NP84 28-77); test: phage ELISA, antibody on plate
[2] = target: T1, recombinant Fn14-Fc (human, UniProt Q9NP84 28-77); test: SPR (ProteOn XPR36), mAb captured on anti-mouse IgG, Fn14-Fc analyte, bivalent analyte fit
T1 construct: also called native Fn14; not shown: Fc region (recognised by anti-human Fc)
Procedure: (§1) The interaction of mouse anti-Fn14 IgG monoclonal antibodies CRCBT-06-001 and CRCBT-06-002 with recombinant Fn14-Fc was measured using the Bio-Rad ProteOn XPR36 essentially as described by Nahshol et al., (2008). Briefly, a GLM ProteOn sensor chip was activated by flowing a mixture of 0.2 M EDC and 0.05 M sulpho-NHS over the chip (150 μl at 30 μl/min for 5 minutes). Rabbit anti-mouse IgG whole molecule (Sigma M-7023) was then coupled to the chip in the vertical orientation by flowing 150 μl of a 50 μg/ml solution in 10 mM acetate buffer (pH 4.5) at 30 μl/min. The remaining coupling sites were then deactivated by flowing 150 μl of 1 M ethanolamine-HCl (pH 8.5) at 30 μl/min. Mouse anti-Fn14 IgG monoclonal antibodies were then bound to the coupled anti-mouse IgG antibody by flowing 150 μl of 100 μg/ml IgG at 25 μl/min over a single channel of the sensor chip in the horizontal direction. […] PBS Tween 20 (0.005%) alone was passed over the remaining channel. Binding sensorgrams were collected and analyzed with the ProteOn Manager 2.1 XPR36 software using the Langmuir or bivalent analyte kinetic models to fit the data and determine the affinity constant KD.
(§2) A Bio-Rad ProteOn XPR36 was used to determine the affinity of mouse monoclonal anti-Fn14 antibodies CRCBT-06-001 and CRCBT-06-002 to recombinant Fn14-Fc. It is clear that both antibodies tested display a high on-rate and a low off-rate. The ProteOn software was used to fit a curve to the sensorgram based on a mathematical model, enabling the kinetics of the interaction (ka, Kd and KD) to be calculated. A number of models can be used to fit the curves to the sensorgram, essentially the models used for each sensorgram were used as they provided the best fit, as evident by the low Chi² value obtained for the residuals.

[3] = target: T1, recombinant Fn14-Fc; test: SPR (ProteOn XPR36), mAb captured on anti-mouse IgG, Fn14-Fc analyte, Langmuir fit
Procedure: as §1, §2

T1 sequence (Q9NP84 28-77): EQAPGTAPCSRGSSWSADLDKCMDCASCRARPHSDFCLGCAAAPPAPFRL
Sequence of phage-displayed hFn14 mutant T33N (Q9NP84 28-77 T33N): as the sequence (Q9NP84 28-77) above, with T6N counted along it

- binding result [1]: binds
- Kd [2]: 0.935 nM
- koff [2]: 1.42e-05 s⁻¹
- kon [2]: 15200 M⁻¹ s⁻¹
B1: CRCBT-06-002 (antibody, IgG1, V domains shown)
VH: EVKLQQSGGGLVQPGGSMKLSCVASGFTFSYYWMNWVRQSPEQGLEWIAEIRLQSNDYPTHYAESVKGRFTISRDDSKNSVYLQMNNLRPEDTGIYYCACRYADYFDHWGQGTTLTVSS
VL: DTVLTQSPASLVVSLGQRATISCRASQSVSTSDYSYIHWYQQKPGQPPKFLIKYASNRDSGVPARFSGSGSGTDFTLNIHPVEEDDTAIYYCQHSWEIPPTFGAGTKLELQR

- Kd [3]: 0.768 nM
- koff [3]: 1.81e-05 s⁻¹
- kon [3]: 23600 M⁻¹ s⁻¹
B2: CRCBT-06-001 (antibody, IgG2b, V domains shown)
VH: QVQLQQSGGGLVQPGGSMKLSCIASGFTFSSYWMSWVRQSPEKGLEWVAEIRSKSDNYATHYAESVKGKFTISRDDSKSRFFLQMNNLRAEDTGIYYCSSTYADYFHYWGQGTDLTVSS
VL: DIVMTQTPASLAVSLGQRATISCRASQSVSTSTYSYMHWYQQKPGQPPKLLIKYASSLESGVPARFSGSGSGTDFTLNIHPVEEDDTATYYCQHSWEIPYTFGGGTKLEIKR

— patent US20200239586A1 (LA TROBE UNIVERSITY, published 2020)
